From paper PMC9600255 come the findings set out here.

The target of this test is His6-tagged cytokeratin-19 (Novus Biologicals) (UniProt P08727). Nature of the test: MST; His6-cytokeratin-19 labelled with RED-tris-NTA 2nd Generation dye, kept at 25 nM; BspC full-length or V-domain titrated from 5 uM to 0.153 nM; premium capillaries, Monolith NT.115 Pico, 20% excitation power.
UniProt P08727, sequence (P08727 whole entry): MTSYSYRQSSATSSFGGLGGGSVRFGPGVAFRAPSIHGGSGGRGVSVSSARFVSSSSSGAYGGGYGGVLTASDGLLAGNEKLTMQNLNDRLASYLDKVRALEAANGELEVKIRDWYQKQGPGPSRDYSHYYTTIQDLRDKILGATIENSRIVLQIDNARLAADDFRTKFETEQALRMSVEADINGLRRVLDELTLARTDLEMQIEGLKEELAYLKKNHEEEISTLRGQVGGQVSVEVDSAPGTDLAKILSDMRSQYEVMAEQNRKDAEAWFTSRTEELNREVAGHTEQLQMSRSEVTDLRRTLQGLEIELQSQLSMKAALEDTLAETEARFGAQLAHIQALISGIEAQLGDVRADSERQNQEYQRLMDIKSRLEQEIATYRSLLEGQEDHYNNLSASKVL

In the case of “full-length BspC protein (Group B streptococcal surface protein C) (natural protein)”, the equilibrium dissociation constant (Kd) came to 32.9 nM.

On to “BspC V-domain protein (recombinant BspC consisting of only the variable domain) (domain or fragment)”, for which the Kd was found to be 362 nM. Against the preceding substance, the Kd is about 11-fold higher.

As usually defined, the Kd is the concentration at which binding is half-saturated. A low value points to tighter binding.
